Results from publication doi:10.1101/2024.08.09.607165.

Tests used:
[1] = target: TraT encoded by pKpQIL (TraT_(pKpQIL)), mature protein C36-L258 (K. pneumoniae (plasmid pKpQIL)); assay: cryo-EM structure
[2] = target: TraT encoded by the F plasmid derivative pOX38 (TraTF), mature protein C21-L244 (E. coli (F plasmid, pOX38)); assay: cryo-EM structure

With “TraT encoded by pKpQIL (TraT_(pKpQIL)), mature protein C36-L258 (natural protein)” the stoichiometry N [1] was 10.
Substance “TraT encoded by the F plasmid derivative pOX38 (TraTF), mature protein C21-L244 (natural protein)” has a stoichiometry N [2] of 10.
